Laboratory results reported in patent US11655308B2, “HM-3 fusion protein and application thereof” (TASLY BIOPHARMACEUTICALS CO., LTD., priority 2017, dated 2023).
Where “and” joins values, the source holds several entries; their conditions need not be identical. Identical values can stand only once.

Experiments:
[1] = test system: mice splenic lymphocyte proliferation stimulated by ConA; type: cell-based
Description: Experimental method: mice orbit was by bloodletting to death, and immediately immersed in 75% ethanol for 5-10 min, and then the spleen was removed on a clean bench and placed in PBS. The spleen was placed on a sterile cell strainer (200 mesh) and ground with a syringe nozzle; during grinding process, PBS was added continuously; the slurry was collected and centrifuged (1000 rpm for 5 min), then cells were washed 3 times with Tris-ammonium chloride solution, and washed again with a medium, and then re-suspended in the medium. Finally, trypan blue living cell staining was performed on the cells, and the survival rate was more than 95%. The concentration of viable cells was adjusted to 2×10^6/mL. […] was added to each well of a 96-well plate, meanwhile, ConA (concanavalin to simulate splenocyte proliferation) and drugs were added to each well. Six duplicates were set in each group.
The 96-well plate was incubated for 48 h in a 5% CO2 incubator at 37° C. 5 mg/mL of MTT was added to the 96-well plate, 20 μL for each well, and then it was incubated continuously for 4 h in the incubator. The culture medium in the 96-well plate was discarded and 100 μL DMSO was added to each well and mixed gently. Absorbance was measured by a microplate reader at the wavelength of 570 nm and reference wavelength of 630 nm.
Proliferation inhibition rate (PI) was calculated according to formula:
[formula] wherein, Atest is the absorbance of dosing group, and Acontrol is the absorbance of negative control. Test results were expressed as mean±SD, and statistical T test was performed. *P<0.05 indicates significant difference, **P<0.01 indicates extremely significant difference. Based upon the results, the efficacy of the fusion protein against rheumatoid arthritis was screened.
In the P4 control group, TSL-4 fusion protein served as a control agent.

[2] = Pharmacokinetics after single subcutaneous injection (double-antibody sandwich ELISA)
Description: (1) 18 SD rats (half male and half female) were purchased and fed for one week.
(2) Rats were divided into 3 groups, half male and half female, and weight of rats were recorded respectively.
The blood was centrifuged at 12000 rpm/min to take 200 μL of supernatant, then the supernatant was diluted with PBS solution according to a ratio of 1:3, and finally placed in an EP tube and stored in a −80° C. refrigerator.
(4) Biological samples were measured by double-antibody sandwich ELISA.
(1) Coating, HM-3 monoclonal antibody was diluted with a coating buffer (CBS) in certain concentration, added to an ELISA plate and coated overnight.
(2) Plate washing, the coating buffer was discarded, and the plate was washed by PBST for 3 times, and then dried by patting.
(3) Sealing, a blocking buffer was added for sealing at 37.5° C., the plate washing process was repeated and the plate was dried by patting.
(4) Addition of samples to be measured, the samples to be measured were added to the ELISA plate with multiple wells, and then incubated at 37.5° C.; the plate washing process was repeated and the plate was dried by patting.
(5) Addition of a secondary antibody, the secondary antibody diluted proportionally was added for incubation at 37.5° C. The plate washing process was repeated and the plate was dried by patting.
(6) Addition of the enzyme-labeled secondary antibody for reaction, the HRP-labeled secondary antibody which was diluted by 5% skim milk powder solution according to certain proportion was added for incubation at 37.5° C. The plate washing process was repeated and the plate was dried by patting.
(7) Addition of a substrate, a TMB substrate in certain volume L was added for reaction in the dark.
(8) Termination of the reaction, a certain amount of stop buffer was added to terminate the reaction.
(9) Detection, read OD450 nm with a microplate reader.

Substance: mIgG4-Fc-(GGGGS)3-HM-3 [TSL-4]
- optimal (best) inhibition rate of splenic lymphocyte proliferation ([1]; ConA 5 μg/mL, 48 h, MTT, best of the tested concentrations): 63.3%
- inhibition rate compared with the positive control group ([1]; positive group Dexamethasone 50 μmol/L): higher than that of the positive control group
- inhibition ratio of mice splenic lymphocyte proliferation relative to group ConA ([1]; second round (Table 3)): enhanced significantly
- Plasma concentration ([2]; 4.17 mg/kg sc, 0.00 h, Mean): 0 µg/mL
- Plasma concentration ([2]; 4.17 mg/kg sc, 0.00 h, single rats No. 1-5): 0 µg/mL
- Plasma concentration ([2]; 4.17 mg/kg sc, 0.50 h, Mean): 0.0818 µg/mL
- Plasma concentration ([2]; 4.17 mg/kg sc, 0.50 h, single rats No. 1-5): 0.00626 µg/mL and 0.0985 µg/mL and 0.131 µg/mL and 0.0504 µg/mL and 0.122 µg/mL
- Plasma concentration ([2]; 4.17 mg/kg sc, 1.00 h, Mean): 0.135 µg/mL
- Plasma concentration ([2]; 4.17 mg/kg sc, 1.00 h, single rats No. 1-5): 0.0588 µg/mL and 0.162 µg/mL and 0.168 µg/mL and 0.136 µg/mL and 0.151 µg/mL
- Plasma concentration ([2]; 4.17 mg/kg sc, 3.00 h, Mean): 0.388 µg/mL
- Plasma concentration ([2]; 4.17 mg/kg sc, 3.00 h, single rats No. 1-5): 0.238 µg/mL and 0.382 µg/mL and 0.412 µg/mL and 0.338 µg/mL and 0.570 µg/mL
- Plasma concentration ([2]; 4.17 mg/kg sc, 5.00 h, Mean): 0.573 µg/mL
- Plasma concentration ([2]; 4.17 mg/kg sc, 5.00 h, single rats No. 1-5): 0.667 µg/mL and 0.482 µg/mL and 0.575 µg/mL and 0.374 µg/mL and 0.766 µg/mL
- Plasma concentration ([2]; 4.17 mg/kg sc, 6.00 h, Mean): 0.894 µg/mL
- Plasma concentration ([2]; 4.17 mg/kg sc, 6.00 h, single rats No. 1-5): 1.278 µg/mL and 0.699 µg/mL and 1.024 µg/mL and 0.491 µg/mL and 0.978 µg/mL
- Plasma concentration ([2]; 4.17 mg/kg sc, 7.00 h, Mean): 1.297 µg/mL
- Plasma concentration ([2]; 4.17 mg/kg sc, 7.00 h, single rats No. 1-5): 1.696 µg/mL and 0.903 µg/mL and 1.556 µg/mL and 0.914 µg/mL and 1.415 µg/mL
- Plasma concentration ([2]; 4.17 mg/kg sc, 8.00 h, Mean): 1.356 µg/mL
- Plasma concentration ([2]; 4.17 mg/kg sc, 8.00 h, single rats No. 1-5): 1.383 µg/mL and 1.584 µg/mL and 1.319 µg/mL and 1.407 µg/mL and 1.088 µg/mL
- Plasma concentration ([2]; 4.17 mg/kg sc, 10.00 h, Mean): 1.058 µg/mL
- Plasma concentration ([2]; 4.17 mg/kg sc, 10.00 h, single rats No. 1-5): 1.192 µg/mL and 1.305 µg/mL and 0.854 µg/mL and 0.960 µg/mL and 0.980 µg/mL
- Plasma concentration ([2]; 4.17 mg/kg sc, 12.00 h, Mean): 0.771 µg/mL
- Plasma concentration ([2]; 4.17 mg/kg sc, 12.00 h, single rats No. 1-5): 0.947 µg/mL and 0.964 µg/mL and 0.712 µg/mL and 0.363 µg/mL and 0.867 µg/mL
- Plasma concentration ([2]; 4.17 mg/kg sc, 16.00 h, Mean): 0.468 µg/mL
- Plasma concentration ([2]; 4.17 mg/kg sc, 16.00 h, single rats No. 1-5): 0.767 µg/mL and 0.682 µg/mL and 0.237 µg/mL and 0.183 µg/mL and 0.471 µg/mL
- Plasma concentration ([2]; 4.17 mg/kg sc, 20.00 h, Mean): 0.205 µg/mL
- Plasma concentration ([2]; 4.17 mg/kg sc, 20.00 h, single rats No. 1-5): 0.249 μg/mL and 0.252 μg/mL and 0.179 μg/mL and 0.172 μg/mL (2×)
- Plasma concentration ([2]; 4.17 mg/kg sc, 24.00 h, Mean): 0.100 µg/mL
- Plasma concentration ([2]; 4.17 mg/kg sc, 24.00 h, single rats No. 1-5): 0.0638 μg/mL and 0.0738 μg/mL and 0.0533 μg/mL and 0.155 μg/mL (2×)
- Plasma concentration ([2]; 4.17 mg/kg sc, 28.00 h, Mean): 0.0667 µg/mL
- Plasma concentration ([2]; 4.17 mg/kg sc, 28.00 h, single rats No. 1-5): 0.0454 μg/mL and 0.0406 μg/mL and 0.0381 μg/mL and 0.105 μg/mL (2×)
- Plasma concentration ([2]; 4.17 mg/kg sc, 41.00 h, Mean): 0.0545 µg/mL
- Plasma concentration ([2]; 4.17 mg/kg sc, 41.00 h, single rats No. 1-5): 0.0298 μg/mL and 0.0288 μg/mL and 0.0231 μg/mL and 0.0954 μg/mL (2×)
- Plasma concentration ([2]; 4.17 mg/kg sc, 53.00 h, Mean): 0.0366 µg/mL
- Plasma concentration ([2]; 4.17 mg/kg sc, 53.00 h, single rats No. 1-5): 0.0108 µg/mL and 0.0074 µg/mL and 0.0171 µg/mL and 0.0669 µg/mL and 0.0809 µg/mL
- Plasma concentration ([2]; 4.17 mg/kg sc, 65.00 h, Mean): 0.0233 µg/mL
- Plasma concentration ([2]; 4.17 mg/kg sc, 65.00 h, single rats No. 1-5): 0.008536 µg/mL and 0.003139 µg/mL and 0.0168 µg/mL and 0.0440 µg/mL and 0.044 µg/mL
- Plasma concentration ([2]; 4.17 mg/kg sc, 77.00 h, Mean): 0.0114 µg/mL
- Plasma concentration ([2]; 4.17 mg/kg sc, 77.00 h, single rats No. 1-5): 0.005846 µg/mL and 0.002666 µg/mL and 0.0125 µg/mL and 0.0181 µg/mL and 0.01811 µg/mL
- AUC 0-77 ([2]; 4.17 mg/kg single sc): 7055.774 ng·h/mL
- AUC 0-∞ ([2]; 4.17 mg/kg single sc): 9006.668 ± 3859.519 ng·h/mL
- MRT 0-77 ([2]; 4.17 mg/kg single sc): 14.880 h
- MRT 0-∞ ([2]; 4.17 mg/kg single sc): 17.330 h
- Tmax ([2]; 4.17 mg/kg single sc): 7.4 ± 0.55 h
- ka ([2]; 4.17 mg/kg single sc): 0.258
- t½ka (absorption half-life) ([2]; 4.17 mg/kg single sc): 2.265 h
- t½ke (elimination half-life) ([2]; 4.17 mg/kg single sc): 30.710 ± 3.100 h
- α, ke ([2]; 4.17 mg/kg single sc): 0.090
- Plasma concentration ([2]; 12.5 mg/kg sc, 0.50 h, Mean): 0.848 µg/mL
- Plasma concentration ([2]; 12.5 mg/kg sc, 0.50 h, single rats No. 1-5): 0.176 µg/mL and 0.741 µg/mL and 0.995 µg/mL and 0.598 µg/mL and 1.728 µg/mL
- Plasma concentration ([2]; 12.5 mg/kg sc, 1.00 h, Mean): 1.877 µg/mL
- Plasma concentration ([2]; 12.5 mg/kg sc, 1.00 h, single rats No. 1-5): 0.740 µg/mL and 1.435 µg/mL and 1.875 µg/mL and 1.153 µg/mL and 4.180 µg/mL
- Plasma concentration ([2]; 12.5 mg/kg sc, 3.00 h, Mean): 4.078 µg/mL
- Plasma concentration ([2]; 12.5 mg/kg sc, 3.00 h, single rats No. 1-5): 1.459 µg/mL and 2.970 µg/mL and 4.100 µg/mL and 2.070 µg/mL and 9.793 µg/mL
- Plasma concentration ([2]; 12.5 mg/kg sc, 5.00 h, Mean): 7.518 µg/mL
- Plasma concentration ([2]; 12.5 mg/kg sc, 5.00 h, single rats No. 1-5): 2.030 µg/mL and 5.512 µg/mL and 8.329 µg/mL and 6.748 µg/mL and 14.973 µg/mL
- Plasma concentration ([2]; 12.5 mg/kg sc, 6.00 h, Mean): 9.970 µg/mL
- Plasma concentration ([2]; 12.5 mg/kg sc, 6.00 h, single rats No. 1-5): 2.337 µg/mL and 7.869 µg/mL and 11.753 µg/mL and 9.720 µg/mL and 18.172 µg/mL
- Plasma concentration ([2]; 12.5 mg/kg sc, 7.00 h, Mean): 13.413 µg/mL
- Plasma concentration ([2]; 12.5 mg/kg sc, 7.00 h, single rats No. 1-5): 3.372 µg/mL and 8.202 µg/mL and 11.959 µg/mL and 7.582 µg/mL and 35.951 µg/mL
- Plasma concentration ([2]; 12.5 mg/kg sc, 8.00 h, Mean): 10.626 µg/mL
- Plasma concentration ([2]; 12.5 mg/kg sc, 8.00 h, single rats No. 1-5): 4.395 µg/mL and 6.684 µg/mL and 10.711 µg/mL and 6.343 µg/mL and 24.998 µg/mL
- Plasma concentration ([2]; 12.5 mg/kg sc, 10.00 h, Mean): 8.284 µg/mL
- Plasma concentration ([2]; 12.5 mg/kg sc, 10.00 h, single rats No. 1-5): 3.014 µg/mL and 5.271 µg/mL and 9.706 µg/mL and 6.000 µg/mL and 17.430 µg/mL
- Plasma concentration ([2]; 12.5 mg/kg sc, 12.00 h, Mean): 7.390 µg/mL
- Plasma concentration ([2]; 12.5 mg/kg sc, 12.00 h, single rats No. 1-5): 2.663 µg/mL and 4.448 µg/mL and 7.496 µg/mL and 5.562 µg/mL and 16.780 µg/mL
- Plasma concentration ([2]; 12.5 mg/kg sc, 16.00 h, Mean): 6.292 µg/mL
